The record followed here is US20110274704A1.

Experiment [1] deals with CD20 on lymphoma and leukemia cell lines (human) (UniProt P11836). Description: cell-based or functional assay.
The target of experiment [2] is fusion protein containing the A3B3 domain of CEA (UniProt P06731). Kind of experiment: competitive ELISA on coated A3B3 fusion protein; competitor HRP-conjugated hMN-14 IgG (1 nM).

Sequence of CD20 on lymphoma and leukemia cell lines (human) (P11836 whole entry, the tested form may be a part): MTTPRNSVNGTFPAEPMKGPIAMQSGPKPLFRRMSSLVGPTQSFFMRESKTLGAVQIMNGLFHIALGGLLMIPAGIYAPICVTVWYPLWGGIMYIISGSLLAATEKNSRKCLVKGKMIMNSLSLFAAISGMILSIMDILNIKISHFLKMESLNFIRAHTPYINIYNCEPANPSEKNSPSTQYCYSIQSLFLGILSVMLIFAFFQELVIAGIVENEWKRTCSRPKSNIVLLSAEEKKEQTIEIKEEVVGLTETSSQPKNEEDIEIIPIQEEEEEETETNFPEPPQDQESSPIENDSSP

In experiment [1], 20-Rap (antibody) showed an EC50, in vitro cytotoxicity, Daudi and Ramos cells of 0.0001 µM; an EC50, in vitro cytotoxicity, Jeko-1 cells of 20 µM.
For the substance TF2 (bispecific antibody), in experiment [2], the fold of avidity against TF1 was found to be 2 fold.
